Changes are numbered by the printed parent chain. Names and notes keep the numbering of the source.
Tests used:
[1] = Relative enzymatic activity of GLD (DCIP/1-m-PMS, plate reader, yeast culture supernatant) with proflavin hydrochloride present; format: biochemical; conditions: site-specific mutants, inhibitor final concentration 1 mM
Description: (§1) The susceptibility defined in the present specification is evaluated in terms of a relative activity that is determined in a system wherein the inhibitor coexists or not. The relative activity is derived from a relative value (%) of an enzymatic activity (a sample value) obtained with the addition of the inhibitor in the determination of the enzymatic activity described in the present specification as compared with an enzymatic activity (a blank value) as “100%” obtained without the addition of the inhibitor in the same determination. Thus, the higher the relative activity is, the less the susceptibility to the inhibitor is (or the more the susceptibility to the inhibitor is reduced), vice versa.
(§2) The enzymatic activity is determined in the following manner in Examples 3 and 6 wherein a plate reader (Japan Molecular Device Corporation, SpectraMax Plus384) is used. Thus, culture supernatant that had been diluted in advance with an appropriate magnification is added to a 96-well microplate with an amount of 100 μl per well. A reagent for the determination of the enzymatic activity comprising phosphate buffer (pH 7.0), 1.0 M D-glucose, 3 mM DCIP, 3 mM 1-m-PMS and methanol with a volume ratio of 0.1:1:0.14:0.2:0.06 is added to the 96-well microplate with an amount of 100 μl per well, and a change in the absorbance of DCIP at 600 nm (ΔABS/min) is then determined. The enzymatic activity can be calculated by conversion in proportion to a change in the absorbance of an enzyme solution for which the enzymatic activity has already been known by the above-mentioned activity determination procedure using the spectrophotometer.
(§3) In the following examples, a value of the enzymatic activity determined by the spectrometer or plate reader using the above reagent composition is considered as a blank value. On the other hand, a sample value is determined using a methanol solution comprising the inhibitor such as 1,10-phenanthroline or proflavin hydrochloride at a final concentration of 1 mM instead of the methanol. Enzymatic activity (unit/mL)=(−ΔABS/16.3)×3.0/0.05×(Dilution ratio of enzyme) [Equation 1]

[2] = Relative enzymatic activity of GLD (DCIP/1-m-PMS, plate reader, yeast culture supernatant) with 1,10-phenanthroline present; format: biochemical; conditions: site-specific mutants, inhibitor final concentration 1 mM
Description: as §1, §2, §3
Into each well of a 96-well microplate (manufactured by Nunc, Inc.), a YPD medium containing 125 μL of 1.0% (w/v) yeast extract (manufactured by BD), 2.0% (w/v) tryptone (manufactured by BD), 2.0% (w/v) glucose (manufactured by Wako Pure Chemical Industries, Ltd.) was dispensed, and the transformant colonies obtained in Example 2 were inoculated thereinto one by one.
After shaking culture at 30° C. and 1,000 rpm for 24 hours, the culture mixture was centrifuged and the supernatant was collected.
According to the above-mentioned method for the determination of enzymatic activity, a blank value and a sample value were determined using a plate reader, and the relative activity (%) was obtained by dividing the sample value by the blank value.

B1: H341R: modified GLD: SEQ ID NO: 1 with substitution H341R (protein, listed as Aspergillus terreus)
chain: MLGKLSFLSALSLAVAAPLSNSTSAKYDYIVIGGGTSGLAVANRLSEDPNVNVLILEAGGSVWNNPNVTNVDGYGLAFGSDIDWQYQSVNQPYGGNLSQVLRAGKALGGTSTINGMAYTRAEDVQIDAWETIGNTGWTWKNLFPYYRKSENFTVPTKSQTSLGASYEAGAHGHEGPLDVAFTQIESNNLTTYLNRTFQGMGLPWTEDVNGGKMRGFNLYPSTVNLEEYVREDAARAYYWPYKSRPNLHVLLNTFANRIVWDGEAHDGHITASGVEITSRNGTVRVINAEKEVIVSAGALKSPAILELSGIGNPSVLDKHNIPVKVNLPTVGENLQDQVNSRMDASGNTSISGTKAVSYPDVYDVFGDEAESVAKQIRANLKQYAADTAKANGNIMKAADLERLFEVQYDLIFKGRVPIAEVLNYPGSATSVFAEFWALLPFARGSVHIGSSNPAEFPVINPNYFMLDWDAKSYVAVAKYIRRSFESYPLSSIVKESTPGYDVIPRNASEQSWKEWVFDKNYRSNFHPVGTAAMMPREIGGVVDERLNVYGTTNVRVVDASVLPFQVCGHLVSTLYAVAERAADLIKADAGRR
modifications: SIGNAL (1)..(19)
Relative Activity [%] Proflavin hydrochloride [1]: 69.5%
Relative Activity [%] 1,10-Phenanthroline [2]: 78.6%

B2: D343K: modified GLD: SEQ ID NO: 1 with substitution D343K (protein, listed as Aspergillus terreus)
chain: B1 chain with R341H, D343K
modifications: SIGNAL (1)..(19)
Relative Activity [%] Proflavin hydrochloride [1]: 51.8%
Relative Activity [%] 1,10-Phenanthroline [2]: 95.9%

B3: D343Y: modified GLD: SEQ ID NO: 1 with substitution D343Y (protein, listed as Aspergillus terreus)
chain: B1 chain with R341H, D343Y
modifications: SIGNAL (1)..(19)
Relative Activity [%] Proflavin hydrochloride [1]: 55.6%
Relative Activity [%] 1,10-Phenanthroline [2]: 96.2%

B4: A298V: modified GLD: SEQ ID NO: 1 with substitution A298V (protein, listed as Aspergillus terreus)
chain: B1 chain with A298V, R341H
modifications: SIGNAL (1)..(19)
Relative Activity [%] Proflavin hydrochloride [1]: 51.2%
Relative Activity [%] 1,10-Phenanthroline [2]: 62.2%

B5: D343Q: modified GLD: SEQ ID NO: 1 with substitution D343Q (protein, listed as Aspergillus terreus)
chain: B1 chain with R341H, D343Q
modifications: SIGNAL (1)..(19)
Relative Activity [%] Proflavin hydrochloride [1]: 47.0%
Relative Activity [%] 1,10-Phenanthroline [2]: 86.2%

B6: D343M: modified GLD: SEQ ID NO: 1 with substitution D343M (protein, listed as Aspergillus terreus)
chain: B1 chain with R341H, D343M
modifications: SIGNAL (1)..(19)
Relative Activity [%] Proflavin hydrochloride [1]: 52.9%
Relative Activity [%] 1,10-Phenanthroline [2]: 91.2%

B7: A298I: modified GLD: SEQ ID NO: 1 with substitution A298I (protein, listed as Aspergillus terreus)
chain: B1 chain with A298I, R341H
modifications: SIGNAL (1)..(19)
Relative Activity [%] Proflavin hydrochloride [1]: 43.8%
Relative Activity [%] 1,10-Phenanthroline [2]: 73.7%

B8: V338M: modified GLD: SEQ ID NO: 1 with substitution V338M (protein, listed as Aspergillus terreus)
chain: B1 chain with V338M, R341H
modifications: SIGNAL (1)..(19)
Relative Activity [%] Proflavin hydrochloride [1]: 55.0%
Relative Activity [%] 1,10-Phenanthroline [2]: 73.6%

B9: D343S: modified GLD: SEQ ID NO: 1 with substitution D343S (protein, listed as Aspergillus terreus)
chain: B1 chain with R341H, D343S
modifications: SIGNAL (1)..(19)
Relative Activity [%] Proflavin hydrochloride [1]: 48.3%
Relative Activity [%] 1,10-Phenanthroline [2]: 70.1%

B10: D343L: modified GLD: SEQ ID NO: 1 with substitution D343L (protein, listed as Aspergillus terreus)
chain: B1 chain with R341H, D343L
modifications: SIGNAL (1)..(19)
Relative Activity [%] Proflavin hydrochloride [1]: 73.2%
Relative Activity [%] 1,10-Phenanthroline [2]: 100.5%

B11: D343A: modified GLD: SEQ ID NO: 1 with substitution D343A (protein, listed as Aspergillus terreus)
chain: B1 chain with R341H, D343A
modifications: SIGNAL (1)..(19)
Relative Activity [%] Proflavin hydrochloride [1]: 51.2%
Relative Activity [%] 1,10-Phenanthroline [2]: 72.5%

B12: D343E: modified GLD: SEQ ID NO: 1 with substitution D343E (protein, listed as Aspergillus terreus)
chain: B1 chain with R341H, D343E
modifications: SIGNAL (1)..(19)
Relative Activity [%] Proflavin hydrochloride [1]: 58.2%
Relative Activity [%] 1,10-Phenanthroline [2]: 61.4%

B13: D343V: modified GLD: SEQ ID NO: 1 with substitution D343V (protein, listed as Aspergillus terreus)
chain: B1 chain with R341H, D343V
modifications: SIGNAL (1)..(19)
Relative Activity [%] Proflavin hydrochloride [1]: 67.7%
Relative Activity [%] 1,10-Phenanthroline [2]: 96.7%

B14: D343R: modified GLD: SEQ ID NO: 1 with substitution D343R (protein, listed as Aspergillus terreus)
chain: B1 chain with R341H, D343R
modifications: SIGNAL (1)..(19)
Relative Activity [%] Proflavin hydrochloride [1]: 37.9%
Relative Activity [%] 1,10-Phenanthroline [2]: 80.7%

B15: G352F: modified GLD: SEQ ID NO: 1 with substitution G352F (protein, listed as Aspergillus terreus)
chain: B1 chain with R341H, G352F
modifications: SIGNAL (1)..(19)
Relative Activity [%] Proflavin hydrochloride [1]: 56.9%
Relative Activity [%] 1,10-Phenanthroline [2]: 83.8%

B16: D343W: modified GLD: SEQ ID NO: 1 with substitution D343W (protein, listed as Aspergillus terreus)
chain: B1 chain with R341H, D343W
modifications: SIGNAL (1)..(19)
Relative Activity [%] Proflavin hydrochloride [1]: 57.9%
Relative Activity [%] 1,10-Phenanthroline [2]: 94.2%

B17: D343F: modified GLD: SEQ ID NO: 1 with substitution D343F (protein, listed as Aspergillus terreus)
chain: B1 chain with R341H, D343F
modifications: SIGNAL (1)..(19)
Relative Activity [%] Proflavin hydrochloride [1]: 65.7%
Relative Activity [%] 1,10-Phenanthroline [2]: 95.3%

B18: D343I: modified GLD: SEQ ID NO: 1 with substitution D343I (protein, listed as Aspergillus terreus)
chain: B1 chain with R341H, D343I
modifications: SIGNAL (1)..(19)
Relative Activity [%] Proflavin hydrochloride [1]: 71.5%
Relative Activity [%] 1,10-Phenanthroline [2]: 88.6%

B19: H341S: modified GLD: SEQ ID NO: 1 with substitution H341S (protein, listed as Aspergillus terreus)
chain: B1 chain with R341S
modifications: SIGNAL (1)..(19)
Relative Activity [%] Proflavin hydrochloride [1]: 76.6%
Relative Activity [%] 1,10-Phenanthroline [2]: 90.4%

B20: D343H: modified GLD: SEQ ID NO: 1 with substitution D343H (protein, listed as Aspergillus terreus)
chain: B1 chain with R341H, D343H
modifications: SIGNAL (1)..(19)
Relative Activity [%] Proflavin hydrochloride [1]: 62.8%
Relative Activity [%] 1,10-Phenanthroline [2]: 87.5%

B21: H341V: modified GLD: SEQ ID NO: 1 with substitution H341V (protein, listed as Aspergillus terreus)
chain: B1 chain with R341V
modifications: SIGNAL (1)..(19)
Relative Activity [%] Proflavin hydrochloride [1]: 71.4%
Relative Activity [%] 1,10-Phenanthroline [2]: 96.1%

B22: H341Y: modified GLD: SEQ ID NO: 1 with substitution H341Y (protein, listed as Aspergillus terreus)
chain: B1 chain with R341Y
modifications: SIGNAL (1)..(19)
Relative Activity [%] Proflavin hydrochloride [1]: 77.8%
Relative Activity [%] 1,10-Phenanthroline [2]: 93.6%
